Data taken from article PMC5138414, “Structural Basis for Redox Regulation of Cytoplasmic and Chloroplastic Triosephosphate Isomerases from Arabidopsis thaliana” (Frontiers in Plant Science, 2016).
Numbering of substitutions follows the chain as printed. In names and notes the source's numbering stands.

B1: cTPI-C218S (enzyme, Arabidopsis thaliana, UniProt P48491 1-254, looked up)
chain: MARKFFVGGNWKCNGTAEEVKKIVNTLNEAQVPSQDVVEVVVSPPYVFLPLVKSTLRSDFFVAAQNCWVKKGGAFTGEVSAEMLVNLDIPWVILGHSERRAILNESSEFVGDKVAYALAQGLKVIACVGETLEEREAGSTMDVVAAQTKAIADRVTNWSNVVIAYEPVWAIGTGKVASPAQAQEVHDELRKWLAKNVSADVAATTRIIYGGSVNGGNSKELGGQADVDGFLVGGASLKPEFIDIIKAAEVKKSA
notes: cytoplasmic triosephosphate isomerase, Arabidopsis thaliana, At3g55440, point mutant; Made by site-directed mutagenesis of the cTPI construct; source: E. coli BL21 (DE3) Δtpi, purified (IMAC His-Trap FF, Superdex 75)
B2: cTPI-C13S/C218S (enzyme, Arabidopsis thaliana, UniProt P48491 1-254, looked up)
chain: B1 chain with C13S
notes: cytoplasmic triosephosphate isomerase, Arabidopsis thaliana, At3g55440, double mutant; Made by site-directed mutagenesis of the cTPI construct; also called cTPI double mutant; source: E. coli BL21 (DE3) Δtpi, purified (IMAC His-Trap FF, Superdex 75)
B3: cTPI-C13S (enzyme, Arabidopsis thaliana, UniProt P48491 1-254, looked up)
chain: B1 chain with C13S, S218C
notes: as for B1

Target: the molecule itself
Assay: SEC; analytical size-exclusion chromatography, Superdex 75 10/300GL, calibrated with Bio-Rad gel filtration standard, 0.5 mL/min, 100 mM TEA pH 7.4, 10 mM EDTA, 1 mM DTT; dimer of identical subunits

Protein	binding result	stoichiometry N
B1	binds	–
B2	–	2
B3	–	2
